Drawing on the supplement of paper PMC10567573, this text covers protein stability index for 94 variants.

B1: GMCL1 (parent)
chain: RPDTGDDAAGHGFCYCAGSHKRKR
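Also: lentivirally expressed fusions sorted by FACS into six bins by GFP to DsRed ratio, PSI derived from sequencing read proportions per bin multiplied by bin number.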

The variants in this data set derive from B1. Kind of data set: protein stability index of a GFP-peptide fusion (GPS, HEK-293T) (PSI 1-6); higher = more stable. To be noted: c terminus: a fixed tail appended.
For the variant RPDSGDDAAGHGFCYCAGSHKRKR [T4S], the protein stability index was 3.06.

As for RPDDGDDAAGHGFCYCAGSHKRKR [T4D], the protein stability index amounted to 3.79.

For RPDHGDDAAGHGFCYCAGSHKRKR [T4H], the protein stability index was 3.11.

Regarding RPDEGDDAAGHGFCYCAGSHKRKR [T4E], the protein stability index stood at 3.16.

RPDCGDDAAGHGFCYCAGSHKRKR [T4C]: the protein stability index was 2.14.

As to RPDVGDDAAGHGFCYCAGSHKRKR [T4V], the protein stability index was 3.

For RPDIGDDAAGHGFCYCAGSHKRKR [T4I], the protein stability index was determined as 3.06.

In the case of RPDAGDDAAGHGFCYCAGSHKRKR [T4A], the protein stability index is 3.06.

RPDNGDDAAGHGFCYCAGSHKRKR [T4N]: the protein stability index came to 2.97.

Turning to RPDMGDDAAGHGFCYCAGSHKRKR [T4M], the protein stability index came out at 2.98.

For the variant RPDQGDDAAGHGFCYCAGSHKRKR [T4Q], the protein stability index was found to be 3.47.

Consider RPDKGDDAAGHGFCYCAGSHKRKR [T4K], for which the protein stability index came out at 3.14.

Take RPDLGDDAAGHGFCYCAGSHKRKR [T4L]: the protein stability index was determined as 2.81.

RPDPGDDAAGHGFCYCAGSHKRKR [T4P]: the protein stability index stood at 2.96.

Consider RPDFGDDAAGHGFCYCAGSHKRKR [T4F], for which the protein stability index came to 3.28.

Regarding RPDWGDDAAGHGFCYCAGSHKRKR [T4W], the protein stability index is 2.71.

In the case of RPDTGDDAAGHIFCYCAGSHKRKR [G12I], the protein stability index amounted to 3.02.

As to RPDTGDDAAGHTFCYCAGSHKRKR [G12T], the protein stability index amounted to 3.62.

On to RPDTGDDAAGHKFCYCAGSHKRKR [G12K], for which the protein stability index was 3.21.

Turning to RPDTGDDAAGHQFCYCAGSHKRKR [G12Q], the protein stability index is 3.16.

In the case of RPDTGDDAAGHSFCYCAGSHKRKR [G12S], the protein stability index is 2.88.

As for RPDTGDDAAGHPFCYCAGSHKRKR [G12P], the protein stability index stood at 3.1.

Consider RPDTGDDAAGHFFCYCAGSHKRKR [G12F], for which the protein stability index was determined as 3.02.

As for RPDTGDDAAGHMFCYCAGSHKRKR [G12M], the protein stability index came out at 2.79.

Consider RPDTGDDAAGHCFCYCAGSHKRKR [G12C], for which the protein stability index came out at 2.45.

As to RPDTGDDAAGHNFCYCAGSHKRKR [G12N], the protein stability index amounted to 3.14.

For the variant RPDTGDDAAGHHFCYCAGSHKRKR [G12H], the protein stability index amounted to 3.05.

Regarding RPDTGDDAAGHVFCYCAGSHKRKR [G12V], the protein stability index stood at 3.73.

In the case of RPDTGDDAAGHLFCYCAGSHKRKR [G12L], the protein stability index was found to be 2.38.

With RPDTGDDAAGHAFCYCAGSHKRKR [G12A], the protein stability index was found to be 2.52.

With RPDTGDDAAGHYFCYCAGSHKRKR [G12Y], the protein stability index is 2.71.

For RPDTGDDAAGHRFCYCAGSHKRKR [G12R], the protein stability index is 3.11.

As for RPDTGDDAAGHDFCYCAGSHKRKR [G12D], the protein stability index worked out at 3.14.

As for RPDTGDDAAGHEFCYCAGSHKRKR [G12E], the protein stability index stood at 2.9.

Turning to RPDTGDDAAGHWFCYCAGSHKRKR [G12W], the protein stability index worked out at 2.36.

RPDTGDDAAGHGCCYCAGSHKRKR [F13C]: the protein stability index turned out to be 2.19.

RPDTGDDAAGHGACYCAGSHKRKR [F13A]: the protein stability index amounted to 3.12.

Consider RPDTGDDAVGHGFCYCAGSHKRKR [A9V], for which the protein stability index amounted to 2.96.

For RPDTGDDAIGHGFCYCAGSHKRKR [A9I], the protein stability index is 2.65.

On to RPDTGDDAHGHGFCYCAGSHKRKR [A9H], for which the protein stability index was 2.48.

In the case of RPDTGDDAPGHGFCYCAGSHKRKR [A9P], the protein stability index was 3.01.

As for RPDTGDDAWGHGFCYCAGSHKRKR [A9W], the protein stability index was 2.96.

With RPDTGDDALGHGFCYCAGSHKRKR [A9L], the protein stability index turned out to be 2.71.

For RPDTGDDAQGHGFCYCAGSHKRKR [A9Q], the protein stability index is 3.06.

With RPDTGDDAEGHGFCYCAGSHKRKR [A9E], the protein stability index came to 3.05.

Consider RPDTGDDAMGHGFCYCAGSHKRKR [A9M], for which the protein stability index stood at 2.96.

Regarding RPDTGDDATGHGFCYCAGSHKRKR [A9T], the protein stability index amounted to 3.55.

For RPDTGDDAFGHGFCYCAGSHKRKR [A9F], the protein stability index came to 2.72.

Turning to RPDTGDDARGHGFCYCAGSHKRKR [A9R], the protein stability index was determined as 3.46.

For RPDTGDDANGHGFCYCAGSHKRKR [A9N], the protein stability index was 3.52.

For the variant RPDTGDDAGGHGFCYCAGSHKRKR [A9G], the protein stability index is 3.43.

Consider RPDTGDDAYGHGFCYCAGSHKRKR [A9Y], for which the protein stability index amounted to 3.05.

For RPDTGDDASGHGFCYCAGSHKRKR [A9S], the protein stability index was 2.7.

For the variant RPDTGDDADGHGFCYCAGSHKRKR [A9D], the protein stability index worked out at 3.81.

On to RPDTGDDACGHGFCYCAGSHKRKR [A9C], for which the protein stability index came to 3.89.

RPDTGDDAKGHGFCYCAGSHKRKR [A9K]: the protein stability index worked out at 3.07.

For the variant RPDTGDRAAGHGFCYCAGSHKRKR [D7R], the protein stability index stood at 3.51.

As to RPDTGDHAAGHGFCYCAGSHKRKR [D7H], the protein stability index is 3.09.

With RPDTGDLAAGHGFCYCAGSHKRKR [D7L], the protein stability index came to 3.03.

As for RPDTGDMAAGHGFCYCAGSHKRKR [D7M], the protein stability index amounted to 3.44.

As for RPDTGDGAAGHGFCYCAGSHKRKR [D7G], the protein stability index amounted to 3.3.

In the case of RPDTGDNAAGHGFCYCAGSHKRKR [D7N], the protein stability index was found to be 3.13.

As to RPDTGDAAAGHGFCYCAGSHKRKR [D7A], the protein stability index was 3.46.

Consider RPDTGDTAAGHGFCYCAGSHKRKR [D7T], for which the protein stability index was determined as 3.49.

Turning to RPDTGDYAAGHGFCYCAGSHKRKR [D7Y], the protein stability index was determined as 2.99.

Consider RPDTGDWAAGHGFCYCAGSHKRKR [D7W], for which the protein stability index is 2.2.

On to RPDTGDCAAGHGFCYCAGSHKRKR [D7C], for which the protein stability index stood at 3.02.

RPDTGDFAAGHGFCYCAGSHKRKR [D7F]: the protein stability index worked out at 2.83.

For RPDTGDKAAGHGFCYCAGSHKRKR [D7K], the protein stability index is 3.03.

For the variant RPDTGDVAAGHGFCYCAGSHKRKR [D7V], the protein stability index stood at 3.16.

For the variant RPDTGDEAAGHGFCYCAGSHKRKR [D7E], the protein stability index amounted to 3.95.

With RPDTGDIAAGHGFCYCAGSHKRKR [D7I], the protein stability index was found to be 3.08.

As to RPDTGDQAAGHGFCYCAGSHKRKR [D7Q], the protein stability index came out at 2.83.

As for RPDTGDSAAGHGFCYCAGSHKRKR [D7S], the protein stability index came out at 3.47.

RPDTGDPAAGHGFCYCAGSHKRKR [D7P]: the protein stability index turned out to be 3.28.

Turning to RPDTGGDAAGHGFCYCAGSHKRKR [D6G], the protein stability index came to 3.16.

For RPDTGIDAAGHGFCYCAGSHKRKR [D6I], the protein stability index was determined as 3.05.

RPDTGNDAAGHGFCYCAGSHKRKR [D6N]: the protein stability index is 3.57.

With RPDTGFDAAGHGFCYCAGSHKRKR [D6F], the protein stability index was 2.73.

Take RPDTGHDAAGHGFCYCAGSHKRKR [D6H]: the protein stability index was 2.8.

Turning to RPDTGKDAAGHGFCYCAGSHKRKR [D6K], the protein stability index is 3.27.

As for RPDTGLDAAGHGFCYCAGSHKRKR [D6L], the protein stability index is 3.13.

In the case of RPDTGSDAAGHGFCYCAGSHKRKR [D6S], the protein stability index came to 2.97.

On to RPDTGRDAAGHGFCYCAGSHKRKR [D6R], for which the protein stability index was determined as 3.23.

As for RPDTGWDAAGHGFCYCAGSHKRKR [D6W], the protein stability index is 2.99.

Take RPDTGYDAAGHGFCYCAGSHKRKR [D6Y]: the protein stability index is 3.15.

RPDTGTDAAGHGFCYCAGSHKRKR [D6T]: the protein stability index turned out to be 2.89.

For RPDTGPDAAGHGFCYCAGSHKRKR [D6P], the protein stability index came out at 2.96.

With RPDTGQDAAGHGFCYCAGSHKRKR [D6Q], the protein stability index was 3.46.

As for RPDTGVDAAGHGFCYCAGSHKRKR [D6V], the protein stability index amounted to 2.93.

As to RPDTGADAAGHGFCYCAGSHKRKR [D6A], the protein stability index was 3.21.

Turning to RPDTGCDAAGHGFCYCAGSHKRKR [D6C], the protein stability index was found to be 3.8.

Take RPDTGMDAAGHGFCYCAGSHKRKR [D6M]: the protein stability index stood at 2.79.

With RPDTGEDAAGHGFCYCAGSHKRKR [D6E], the protein stability index was found to be 3.46.
